± gives the standard deviation of the averaged measurements.
Assay: total protein half-life in vivo (active degradation + dilution); higher = more stable protein
[1] = E. coli NCM3722 delta-clpP delta-lon delta-hslV, growth: N-lim chemostat, doubling time 6 h
[2] = E. coli NCM3722 delta-hslV, growth: N-lim chemostat, doubling time 6 h
[3] = E. coli NCM3722 delta-lon, growth: N-lim chemostat, doubling time 6 h
[4] = E. coli NCM3722 delta-smpB, growth: N-lim chemostat, doubling time 6 h
[5] = wild type E. coli NCM3722, growth: C-lim chemostat, doubling time 3 h
[6] = wild type E. coli NCM3722, growth: C-lim chemostat, doubling time 12 h
[7] = wild type E. coli NCM3722, growth: N-lim chemostat, doubling time 6 h
[8] = wild type E. coli NCM3722, growth: N-lim chemostat, doubling time 12 h
[9] = wild type E. coli NCM3722, growth: P-lim chemostat, doubling time 6 h
[10] = wild type E. coli NCM3722, growth: P-lim chemostat, doubling time 12 h
[11] = wild type E. coli NCM3722, growth: C-lim chemostat, doubling time 6 h
[12] = E. coli NCM3722 delta-clpP, growth: N-lim chemostat, doubling time 6 h

Row | Sequence | total protein half-life in vivo [1] [h] | total protein half-life in vivo [2] [h] | total protein half-life in vivo [3] [h] | total protein half-life in vivo [4] [h] | total protein half-life in vivo [5] [h] | total protein half-life in vivo [6] [h] | total protein half-life in vivo [7] [h] | total protein half-life in vivo [8] [h] | total protein half-life in vivo [9] [h] | total protein half-life in vivo [10] [h] | total protein half-life in vivo [11] [h] | total protein half-life in vivo [12] [h]
1 | MRIHILGICGTFMGGLAMLARQLGHEVTGSDANVYPPMSTLLEKQGIELIQGYDASQLEPQPDLVIIGNAMTRGNPCVEAVLEKNIPYMSGPQWLHDFVLRDRWVLAVAGTHGKTTTAGMATWILEQCGYKPGFVIGGVPGNFEVSAHLGESDFFVIEADEYDCAFFDKRSKFVHYCPRTLILNNLEFDHADIFDDLKAIQKQFHHLVRIVPGQGRIIWPENDINLKQTMAMGCWSEQELVGEQGHWQAKKLTTDASEWEVLLDGEKVGEVKWSLVGEHNMHNGLMAIAAARHVGVAPADAANALGSFINARRRLELRGEANGVTVYDDFAHHPTAILATLAALRGKVGGTARIIAVLEPRSNTMKMGICKDDLAPSLGRADEVFLLQPAHIPWQVAEVAEACVQPAHWSGDVDTLADMVVKTAQPGDHILVMSNGGFGGIHQKLLDGLAKKAEAAQ | 5.233 ± 0.034 | 5.14 ± 0.089 | 6.73 ± 0.28 | 5.26 ± 0.38 | 2.84 ± 0.21 | 12.236 ± 0.0033 | 5.58 ± 0.38 | 9.82 ± 1.3 | 5.99 ± 0.1 | 12.4 ± 0.71 | – | –
2 | MRIHSPYPASWALAQRIGYLYSEGEIIYLADTPFERLLDIQRQVGQCQTMTSLSQADFEARLEAVFHQNTGESQQIAQDIDQSVDLLSLSEEMPANEDLLNEDSAAPVIRLINAILSEAIKETASDIHIETYEKTMSIRFRIDGVLRTILQPNKKLAALLISRIKVMARLDIAEKRIPQDGRISLRIGRRNIDVRVSTLPSIYGERAVLRLLDKNSLQLSLNNLGMTAADKQDLENLIQLPHGIILVTGPTGSGKSTTLYAILSALNTPGRNILTVEDPVEYELEGIGQTQVNTRVDMSFARGLRAILRQDPDVVMVGEIRDTETAQIAVQASLTGHLVLSTLHTNSASGAVTRLRDMGVESFLLSSSLAGIIAQRLVRRLCPQCRQFTPVSPQQAQMFKYHQLAVTTIGTPVGCPHCHQSGYQGRMAIHEMMVVTPELRAAIHENVDEQALERLVRQQHKALIKNGLQKVISGDTSWDEVMRVASATLESEA | 6.61 | – | – | – | – | – | – | – | – | – | – | –
3 | MRIIDNLEQFRQIYASGKKWQRCVEAIENIDNIQPGVAHSIGDSLTYRVETDSATDALFTGHRRYFEVHYYLQGQQKIEYAPKETLQVVEYYRDETDREYLKGCGETVEVHEGQIVICDIHEAYRFICNNAVKKVVLKVTIEDGYFHNK [P0AC73] | – | – | – | – | 2.92 ± 0.37 | 9.85 | – | – | – | – | 6.04 ± 0.63 | –
4 | MRILLIEDDMLIGDGIKTGLSKMGFSVDWFTQGRQGKEALYSAPYDAVILDLTLPGMDGRDILREWREKGQREPVLILTARDALAERVEGLRLGADDYLCKPFALIEVAARLEALMRRTNGQASNELRHGNVMLDPGKRIATLAGEPLTLKPKEFALLELLMRNAGRVLSRKLIEEKLYTWDEEVTSNAVEVHVHHLRRKLGSDFIRTVHGIGYTLGEK | 4.652 ± 0.039 | 4.1 ± 0.33 | 4.5 ± 0.27 | 4.06 ± 0.37 | 2.92 ± 0.042 | 10.8 ± 1.9 | 4.2 ± 0.12 | 6.35 ± 0.32 | 5.267 ± 0.0074 | 11 ± 0.5 | 5.51 ± 0.24 | 4.22 ± 0.3
5 | MRILLSNDDGVHAPGIQTLAKALREFADVQVVAPDRNRSGASNSLTLESSLRTFTFENGDIAVQMGTPTDCVYLGVNALMRPRPDIVVSGINAGPNLGDDVIYSGTVAAAMEGRHLGFPALAVSLDGHKHYDTAAAVTCSILRALCKEPLRTGRILNINVPDLPLDQIKGIRVTRCGTRHPADQVIPQQDPRGNTLYWIGPPGGKCDAGPGTDFAAVDEGYVSITPLHVDLTAHSAQDVVSDWLNSVGVGTQW [P0A840] | 4.833 ± 0.047 | 4.1 ± 0.25 | – | 3.71 ± 0.83 | 3.04 ± 0.33 | 8.36 ± 0.48 | 4.5 | 5.84 ± 1.5 | – | – | 6.21 ± 0.81 | 4.03
6 | MRILVLGVGNILLTDEAIGVRIVEALEQRYILPDYVEILDGGTAGMELLGDMANRDHLIIADAIVSKKNAPGTMMILRDEEVPALFTNKISPHQLGLADVLSALRFTGEFPKKLTLVGVIPESLEPHIGLTPTVEAMIEPALEQVLAALRESGVEAIPREAIHD | 5.25 ± 0.57 | 4.14 ± 0.58 | 5.3 ± 0.96 | 3.53 ± 0.16 | 3.09 ± 0.27 | 11.5 ± 0.37 | 4.28 ± 0.7 | 6.81 ± 0.15 | 6.77 ± 0.8 | 11 ± 0.18 | 5.7 ± 1.1 | 4.51 ± 0.38
7 | MRKIVAMAVICLTAASGLTSAYAAQLADDEAGLRIRLKNELRRADKPSAGAGRDIYAWVQGGLLDFNSGYYSNIIGVEGGAYYVYKLGARADMSTRWYLDGDKSFGFALGAVKIKPSENSLLKLGRFGTDYSYGSLPYRIPLMAGSSQRTLPTVSEGALGYWALTPNIDLWGMWRSRVFLWTDSTTGIRDEGVYNSQTGKYDKHRARSFLAASWHDDTSRYSLGASVQKDVSNQIQSILEKSIPLDPNYTLKGELLGFYAQLEGLSRNTSQPNETALVSGQLTWNAPWGSVFGSGGYLRHAMNGAVVDTDIGYPFSLSLDRNREGMQSWQLGVNYRLTPQFTLTFAPIVTRGYESSKRDVRIEGTGILGGMNYRVSEGPLQGMNFFLAADKGREKRDGSTLGDRLNYWDVKMSIQYDFMLK | – | – | – | – | 3.55 ± 0.51 | 11.5 ± 2 | – | – | – | – | 7.84 | –
8 | MRKSVIAIIIIVLVVLYMSVFVVKEGERGITLRFGKVLRDDDNKPLVYEPGLHFKIPFIETVKMLDARIQTMDNQADRFVTKEKKDLIVDSYIKWRISDFSRYYLATGGGDISQAEVLLKRKFSDRLRSEIGRLDVKDIVTDSRGRLTLEVRDALNSGSAGTEDEVTTPAADNAIAEAAERVTAETKGKVPVINPNSMAALGIEVVDVRIKQINLPTEVSEAIYNRMRAEREAVARRHRSQGQEEAEKLRATADYEVTRTLAEAERQGRIMRGEGDAEAAKLFADAFSKDPDFYAFIRSLRAYENSFSGNQDVMVMSPDSDFFRYMKTPTSATR [P0ABC3] | 6.51 ± 1.1 | 6.357 ± 0.024 | 6.347 ± 0.034 | 5.72 ± 0.33 | 3.09 ± 0.1 | 11.7 ± 0.84 | 6.653 ± 0.049 | 12.7 ± 0.77 | 6 ± 0.65 | 13.8 ± 0.97 | 6.06 ± 0.14 | 6.07 ± 0.18
9 | MRLCDRDIEAWLDEGRLSINPRPPVERINGATVDVRLGNKFRTFRGHTAAFIDLSGPKDEVSAALDRVMSDEIVLDEGEAFYLHPGELALAVTLESVTLPADLVGWLDGRSSLARLGLMVHVTAHRIDPGWSGCIVLEFYNSGKLPLALRPGMLIGALSFEPLSGPAVRPYNRREDAKYRNQQGAVASRIDKD | 3.92 ± 0.54 | 3.062 ± 0.021 | 4.56 ± 1.7 | 3.14 ± 0.53 | 2.852 ± 0.011 | 7.69 ± 0.16 | 3.17 ± 0.19 | 4.96 ± 0.52 | 5.25 ± 0.11 | 10.4 ± 0.19 | 4.81 ± 0.3 | 3.36 ± 0.25
